For eight proteins, Km and kcat results are on record in article PMC9901791, “Structural insights into catalytical capability for CPT11 hydrolysis and substrate specificity of a novel marine microbial carboxylesterase, E93” (Frontiers in Microbiology, 2023).

For orientation: Km means the substrate concentration at which the rate is half of its maximum.

Substrate in series [1]: CCc1c2c(nc3ccc(OC(=O)N4CCC(N)CC4)cc13)-c1cc3c(c(=O)n1C2)COC(=O)[C@]3(O)CC
The series can be described thus: purified protein. To be noted: 5-200 uM substrate, 50 mM HEPES pH 7.4, 37 °C, 10 h.

Substrate in series [2]: CCCCCC(=O)Oc1ccc([N+](=O)[O-])cc1
Nature of the series: purified protein. The series is classed as biochemical, Altericroceibacterium indicum. The note with it: Tris-HCl pH 7.5, 45 °C.

Substrate in series [3]: CCCC(=O)Oc1ccc([N+](=O)[O-])cc1
Nature of the series: purified protein. The series is classed as biochemical, Altericroceibacterium indicum. The note with it: Tris-HCl pH 7.5, 45 °C.

Substrate in series [4]: CCc1c2c(nc3ccc(OC(=O)N4CCC(N5CCCCC5)CC4)cc13)-c1cc3c(c(=O)n1C2)COC(=O)[C@]3(O)CC
The series can be described thus: HPLC of SN38 formation. To be noted: pH 7.4; 37.0 °C. The series is classed as biochemical, Altericroceibacterium indicum. An excerpt: (§1) HPLC of SN38 formation on E93 | the kinetic parameters for the conversion of CPT11 and NPC were obtained from the HPLC

Substrate in series [5]: CCc1c2c(nc3ccc(OC(=O)N4CCC(N)CC4)cc13)-c1cc3c(c(=O)n1C2)COC(=O)[C@]3(O)CC
Nature of the series: HPLC of SN38 formation. It counts as biochemical, Altericroceibacterium indicum. The note with it: 5-200 uM substrate, 50 mM HEPES pH 7.4, 37 °C, 10 h.
Description: as §1

B1: E93 (Altericroceibacterium indicum; E428A) (protein)
chain: MARTRYGPVIGKVEQGALAFKGIPYGAPTSGSGRFMPPTPPQPWSTPLRAFDYGPTAPQSDPQDALESGAADARESEDCLTLNVWTPSLNDQRKRPVMVWLHGGGLWRLSAAGDYQAGTHLAAHSDVVMVSPNHRLNVLAHAYLDEYDPAFAGSSSAGMLDLVLALKWVRDNIEEFGGDPDNVTIFGQSGGGQKVSFLMAMPAAAGLFHKAIIQSGPAPLALEKPYARELSARLLTLLDIPKNRVRDIQNVPLDAIMRAYYQIFEELGGFGVMGVIQDFAPVVDDVALPQHPFWNGASPLSRDVPLMIGCTRTEMTEYFLASNPGAAKRDFAAVTAQLEPVFGMQAPAVVAHYRATHPTASPWEVDALIRSDWPTRLFTQRIADEQVKLGGAPVWMYRMDWQTTARDGLLMSPHAIDIPFVLDTVGTAPVEPGQLAEQQRMMQQMNNAWVSFARNGNPQNKYIPPWQPYNSTSRPTMIFNLHSHMANDPDGSDLAFLKKDLANLEVVAGGVTH
Regarding B1, in “purified protein [1]”, the Km worked out at 85.07 ± 9.4 µM and the kcat is reported as 23.80 ± 2.34 ×10^-3 min^-1.

B2: E93 (Altericroceibacterium indicum; M273A) (protein)
chain: MARTRYGPVIGKVEQGALAFKGIPYGAPTSGSGRFMPPTPPQPWSTPLRAFDYGPTAPQSDPQDALESGAADARESEDCLTLNVWTPSLNDQRKRPVMVWLHGGGLWRLSAAGDYQAGTHLAAHSDVVMVSPNHRLNVLAHAYLDEYDPAFAGSSSAGMLDLVLALKWVRDNIEEFGGDPDNVTIFGQSGGGQKVSFLMAMPAAAGLFHKAIIQSGPAPLALEKPYARELSARLLTLLDIPKNRVRDIQNVPLDAIMRAYYQIFEELGGFGVAGVIQDFAPVVDDVALPQHPFWNGASPLSRDVPLMIGCTRTEMTEYFLASNPGAAKRDFAAVTAQLEPVFGMQAPAVVAHYRATHPTASPWEVDALIRSDWPTRLFTQRIADEQVKLGGAPVWMYRMDWQTTARDGLLMSPHAIDIPFVLDTVGTEPVEPGQLAEQQRMMQQMNNAWVSFARNGNPQNKYIPPWQPYNSTSRPTMIFNLHSHMANDPDGSDLAFLKKDLANLEVVAGGVTH
notes: recombinant in E. coli BL21 (DE3), N-terminal His6-SUMO tag (pSMT3), Ni-NTA purified; 57 kDa; 510 residues modelled; catalytic triad S189, E314, H414
In the case of B2, in “purified protein [2]”, the Km was found to be 390 ± 25 µM.

B3: E93 (Altericroceibacterium indicum) (protein)
chain: MARTRYGPVIGKVEQGALAFKGIPYGAPTSGSGRFMPPTPPQPWSTPLRAFDYGPTAPQSDPQDALESGAADARESEDCLTLNVWTPSLNDQRKRPVMVWLHGGGLWRLSAAGDYQAGTHLAAHSDVVMVSPNHRLNVLAHAYLDEYDPAFAGSSSAGMLDLVLALKWVRDNIEEFGGDPDNVTIFGQSGGGQKVSFLMAMPAAAGLFHKAIIQSGPAPLALEKPYARELSARLLTLLDIPKNRVRDIQNVPLDAIMRAYYQIFEELGGFGVMGVIQDFAPVVDDVALPQHPFWNGASPLSRDVPLMIGCTRTEMTEYFLASNPGAAKRDFAAVTAQLEPVFGMQAPAVVAHYRATHPTASPWEVDALIRSDWPTRLFTQRIADEQVKLGGAPVWMYRMDWQTTARDGLLMSPHAIDIPFVLDTVGTEPVEPGQLAEQQRMMQQMNNAWVSFARNGNPQNKYIPPWQPYNSTSRPTMIFNLHSHMANDPDGSDLAFLKKDLANLEVVAGGVTH
notes: as for B2
For B3, the Km in the series “purified protein [2]” is 180 ± 11 µM; in the series “purified protein [3]” (0.02-3.50 mM substrate) it was 210 ± 20 µM; in the series “HPLC of SN38 formation [4]”, 70.17 ± 7.07 µM; in “HPLC of SN38 formation [5]”, 75.66 ± 6.03 µM. Also, the kcat in the series “HPLC of SN38 formation [5]” is 35.40 ± 1.70 ×10^-3 min^-1.

B4: E93 (Altericroceibacterium indicum; W107A) (protein)
chain: MARTRYGPVIGKVEQGALAFKGIPYGAPTSGSGRFMPPTPPQPWSTPLRAFDYGPTAPQSDPQDALESGAADARESEDCLTLNVWTPSLNDQRKRPVMVWLHGGGLARLSAAGDYQAGTHLAAHSDVVMVSPNHRLNVLAHAYLDEYDPAFAGSSSAGMLDLVLALKWVRDNIEEFGGDPDNVTIFGQSGGGQKVSFLMAMPAAAGLFHKAIIQSGPAPLALEKPYARELSARLLTLLDIPKNRVRDIQNVPLDAIMRAYYQIFEELGGFGVMGVIQDFAPVVDDVALPQHPFWNGASPLSRDVPLMIGCTRTEMTEYFLASNPGAAKRDFAAVTAQLEPVFGMQAPAVVAHYRATHPTASPWEVDALIRSDWPTRLFTQRIADEQVKLGGAPVWMYRMDWQTTARDGLLMSPHAIDIPFVLDTVGTEPVEPGQLAEQQRMMQQMNNAWVSFARNGNPQNKYIPPWQPYNSTSRPTMIFNLHSHMANDPDGSDLAFLKKDLANLEVVAGGVTH
notes: as for B2
Turning to B4, the Km in “purified protein [2]” was determined as 210 ± 18 µM.

B5: E93 (Altericroceibacterium indicum; T375A) (protein)
chain: MARTRYGPVIGKVEQGALAFKGIPYGAPTSGSGRFMPPTPPQPWSTPLRAFDYGPTAPQSDPQDALESGAADARESEDCLTLNVWTPSLNDQRKRPVMVWLHGGGLWRLSAAGDYQAGTHLAAHSDVVMVSPNHRLNVLAHAYLDEYDPAFAGSSSAGMLDLVLALKWVRDNIEEFGGDPDNVTIFGQSGGGQKVSFLMAMPAAAGLFHKAIIQSGPAPLALEKPYARELSARLLTLLDIPKNRVRDIQNVPLDAIMRAYYQIFEELGGFGVMGVIQDFAPVVDDVALPQHPFWNGASPLSRDVPLMIGCTRTEMTEYFLASNPGAAKRDFAAVTAQLEPVFGMQAPAVVAHYRATHPTASPWEVDALIRSDWPARLFTQRIADEQVKLGGAPVWMYRMDWQTTARDGLLMSPHAIDIPFVLDTVGTEPVEPGQLAEQQRMMQQMNNAWVSFARNGNPQNKYIPPWQPYNSTSRPTMIFNLHSHMANDPDGSDLAFLKKDLANLEVVAGGVTH
notes: as for B2
In the case of B5, the Michaelis-Menten constant (Km) in “purified protein [2]” stood at 130 ± 10 µM.

B6: E93 (Altericroceibacterium indicum; Y318A) (protein)
chain: MARTRYGPVIGKVEQGALAFKGIPYGAPTSGSGRFMPPTPPQPWSTPLRAFDYGPTAPQSDPQDALESGAADARESEDCLTLNVWTPSLNDQRKRPVMVWLHGGGLWRLSAAGDYQAGTHLAAHSDVVMVSPNHRLNVLAHAYLDEYDPAFAGSSSAGMLDLVLALKWVRDNIEEFGGDPDNVTIFGQSGGGQKVSFLMAMPAAAGLFHKAIIQSGPAPLALEKPYARELSARLLTLLDIPKNRVRDIQNVPLDAIMRAYYQIFEELGGFGVMGVIQDFAPVVDDVALPQHPFWNGASPLSRDVPLMIGCTRTEMTEAFLASNPGAAKRDFAAVTAQLEPVFGMQAPAVVAHYRATHPTASPWEVDALIRSDWPTRLFTQRIADEQVKLGGAPVWMYRMDWQTTARDGLLMSPHAIDIPFVLDTVGTEPVEPGQLAEQQRMMQQMNNAWVSFARNGNPQNKYIPPWQPYNSTSRPTMIFNLHSHMANDPDGSDLAFLKKDLANLEVVAGGVTH
On to B6, for which, in the series “purified protein [1]”, the Km worked out at 55.47 ± 5.17 µM and the kcat is listed as 40.87 ± 3.07 ×10^-3 min^-1.

B7: E93 (Altericroceibacterium indicum; Q193A) (protein)
chain: MARTRYGPVIGKVEQGALAFKGIPYGAPTSGSGRFMPPTPPQPWSTPLRAFDYGPTAPQSDPQDALESGAADARESEDCLTLNVWTPSLNDQRKRPVMVWLHGGGLWRLSAAGDYQAGTHLAAHSDVVMVSPNHRLNVLAHAYLDEYDPAFAGSSSAGMLDLVLALKWVRDNIEEFGGDPDNVTIFGQSGGGAKVSFLMAMPAAAGLFHKAIIQSGPAPLALEKPYARELSARLLTLLDIPKNRVRDIQNVPLDAIMRAYYQIFEELGGFGVMGVIQDFAPVVDDVALPQHPFWNGASPLSRDVPLMIGCTRTEMTEYFLASNPGAAKRDFAAVTAQLEPVFGMQAPAVVAHYRATHPTASPWEVDALIRSDWPTRLFTQRIADEQVKLGGAPVWMYRMDWQTTARDGLLMSPHAIDIPFVLDTVGTEPVEPGQLAEQQRMMQQMNNAWVSFARNGNPQNKYIPPWQPYNSTSRPTMIFNLHSHMANDPDGSDLAFLKKDLANLEVVAGGVTH
notes: as for B2
With B7, the Km in “purified protein [2]” is 100 ± 10 µM.

B8: E93 (Altericroceibacterium indicum; T375I) (protein)
chain: MARTRYGPVIGKVEQGALAFKGIPYGAPTSGSGRFMPPTPPQPWSTPLRAFDYGPTAPQSDPQDALESGAADARESEDCLTLNVWTPSLNDQRKRPVMVWLHGGGLWRLSAAGDYQAGTHLAAHSDVVMVSPNHRLNVLAHAYLDEYDPAFAGSSSAGMLDLVLALKWVRDNIEEFGGDPDNVTIFGQSGGGQKVSFLMAMPAAAGLFHKAIIQSGPAPLALEKPYARELSARLLTLLDIPKNRVRDIQNVPLDAIMRAYYQIFEELGGFGVMGVIQDFAPVVDDVALPQHPFWNGASPLSRDVPLMIGCTRTEMTEYFLASNPGAAKRDFAAVTAQLEPVFGMQAPAVVAHYRATHPTASPWEVDALIRSDWPIRLFTQRIADEQVKLGGAPVWMYRMDWQTTARDGLLMSPHAIDIPFVLDTVGTEPVEPGQLAEQQRMMQQMNNAWVSFARNGNPQNKYIPPWQPYNSTSRPTMIFNLHSHMANDPDGSDLAFLKKDLANLEVVAGGVTH
notes: as for B2
Consider B8, for which the Km worked out at 110 ± 10 µM in “purified protein [2]” and 100 ± 10 µM in “purified protein [3]”.
